# Columns and labels:
# [1] = concentration range of 20–30 µm; peptides alone and as conjugate to ASOs; ref Neundorf et al., 2009; Shabanpoor et al., 2017; cited from earlier work
# Excerpt: We chose an FDA-approved oligonucleotide sequence (Table 1) targeting survival motor neuron-2 (SMN2) mRNA splice correction as a model ASO (in PNA chemistry) for conjugation to a previously characterized CPP derived from the receptor-binding domain of Apolipoprotein E [ApoE(133–150)] ([Meloni et al., 2020]). In order to synthesize trifunctional conjugates, three different functional moieties were selected for conjugation to the side-chain of […] that was generated during NCL of CPP-ASO. These functional moieties include the FDA-approved oligonucleotide sequence as above but incorporated in ...
# [2] = tested on: SMA patient-derived fibroblasts; test: Confocal microscopy of Cy5 fluorescent uptake; type: cell-based, human; details: 1 and 2 µm in OptiMEM without serum, 1 h at 37°C, Cy5 excitation 633 nm
# Experimental: For fluorescent uptake studies, SMA fibroblast cells were plated at a density of 60,000 cells/well of a µ-Slide 4 Well ^Ph+ Glass Bottom chamber slides precoated with poly-L-ornithine. The cells reached 80% confluency after 24 h. They were treated with Cy5-labelled peptide-PNA conjugates made up at a concentration of 1 and 2 µm in OptiMEM without serum for 1 h at 37°C. At 15 min to the end of incubation time, Hoechst (1:1,000 dilution) was added to each well. Cells were washed with PBS and images of cells were taken using the Leica SP8 Resonant Scanning microscope with 63×/1.4 oil objective. The images were acquired at the Cy5-specific excitation of 633 nm and emission of 638–779 nm and Hoechst excitation and emission of 405 nm and 410–585 nm, respectively.
# full-length SMN2 mRNA = test: SMN2 exon-inclusion assay (RT-qPCR of full-length SMN2 mRNA); type: cell-based, human; details: SMA patient-derived fibroblasts (Type-I, GM03813), conjugates 1 and 2 µm in serum-free Opti-MEM for 4 h at 37°C, then growth medium for 20 h, ∆∆Ct vs HPRT1, normalized to untreated = 1, mean ± SEM, N = 3
substance,measurement,setting,value
"ApoE: previously characterized CPP derived from the receptor-binding domain of Apolipoprotein E (LRVRLASHLRKLRKRLLR; UniProt P02649 151-168, looked up, fragment)",cytotoxic effect,[1],no significant cytotoxic effect
"Ac-LRVRLASHLRKLRKRLLR-X-G-C-X-ATTCACTTTCATAATGCTGG | Cy5 [C2, Cy5-labelled ApoE-PNA conjugate, fluorophore on the cysteine thiol of C1]",uptake in fibroblasts (Cy5 fluorescence),[2],concentration-dependent increase in uptake
"Ac-LRVRLASHLRKLRKRLLR-X-G-C-X-ATTCACTTTCATAATGCTGG | Mal-ATTCACTTTCATAATGCTGG [C3, trifunctional conjugate of C1 with maleimide-PMO (SMN2) on the cysteine thiol]",antisense activity (change in the level of full-length SMN2 mRNA),full-length SMN2 mRNA,higher activity compared to the peptide-PNA (C1) conjugate

# From publication PMC7962911, “Modular Synthesis of Trifunctional Peptide-oligonucleotide Conjugates via Native Chemical Ligation” (Frontiers in Chemistry, 2021)
